According to the supplement of paper PMC7877785:
± gives the uncertainty stated by the source.

Experiment: self-splicing fitness, log relative to wild type (ln ratio); higher = more splicing; Tetrahymena group I intron in knt gene, E. coli kanamycin selection, DiMSum; sequences stand for … in CUCUCU…GGAGGGAAAAGUUAUCAGGCAUGCACCUGGUAGCUAGUCUUUAAACCAAUAGAUUGCAUCGGUUUAAAAGGCAAGACCGUCAAAUUGCGGGAAAGGGGUCAACAGCCGUUCAGUACCAAGUCUCAGGGGAAACUUUGAGAUGGCCUUGCAAAGGGUAUGGUAAUAAGCUGACGGACAUGGUCCUAACCACGCAGCCAAGUCCUAAGUCAACAGAUCUUCUGUUGAUAUGGAUGCAGUUCACAGACUAAAUGUCGGUCGGGGAAGAUGUAUUCUUCUCAUAAGAUAUAGUCGGACCUCUCCUUAAUGGGAGCUAGCGGAUGAAGUGAUGCAACACUGGAGCCGCUGGGAACUAAUUUGUAUGCGAAAGUAUAUUGAUUAGUUUUGGAGUACUCGUGGUCG
Outline: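 A randomised library covering all eight P1ex-region intron nucleotides was built with the intron in the knt kanamycin-resistance gene on pET-22b(+) and held in E. coli BL21(DE3). Cells were grown overnight at 37°C or 30°C on LB agar, with or without 25 μg/mL kanamycin, plus 100 μg/mL carbenicillin, 50 μM IPTG and 0.2% rhamnose, and pooled colonies were amplicon-sequenced on an Illumina HiSeq 2500. DiMSum fitness is the error-weighted combination of wild-type-normalised replicate fold changes, kanamycin versus none.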

Row | Sequence | self-splicing fitness (ln) (30 °C) | self-splicing fitness (ln) (37 °C)
1 | UAUCAGCAAUAUUACGCACC | -0.885 ± 0.22 | 0.3 ± 0.29
2 | UAUCAGCAAUAUUACGCAUA | -0.316 ± 0.11 | 0.0108 ± 0.11
3 | UAUCAGCAAUAUUACGCUAC | -4.2 ± 0.42 | -3.24 ± 0.26
4 | UAUCAGCAAUAUUACGCUCC | -1 ± 0.29 | -0.504 ± 0.31
5 | UAUCAGCAAUAUUACGCUUU | -1.48 ± 0.086 | -0.159 ± 0.098
6 | UAUCAGCAAUAUUACGGAAA | -0.825 ± 0.11 | -0.253 ± 0.12
7 | UAUCAGCAAUAUUACGGCAC | -2.52 ± 0.17 | -0.753 ± 0.14
8 | UAUCAGCAAUAUUACGGUAU | -3.73 ± 0.21 | -2.01 ± 0.18
9 | UAUCAGCAAUAUUACGUAGA | -0.562 ± 0.058 | -0.0988 ± 0.081
10 | UAUCAGCAAUAUUACGUUAA | -0.97 ± 0.093 | -0.0683 ± 0.11
11 | UAUCAGCAAUAUUACGUUAG | -1.22 ± 0.095 | -1.03 ± 0.094
12 | UAUGAGCAAUAUUACGACCG | -1.61 ± 0.4 | -1.53 ± 0.34
13 | UAUGAGCAAUAUUACGAGUG | -1.52 ± 0.095 | -0.43 ± 0.11
14 | UAUGAGCAAUAUUACGCAGA | -3.3 ± 0.29 | -2.6 ± 0.23
15 | UAUGAGCAAUAUUACGCCUG | -1.44 ± 0.14 | -1.57 ± 0.26
16 | UAUGAGCAAUAUUACGCUAC | -2.79 ± 0.2 | -2.25 ± 0.43
17 | UAUGAGCAAUAUUACGCUAU | -1.38 ± 0.31 | -1.3 ± 0.23
18 | UAUGAGCAAUAUUACGCUGA | -2.75 ± 0.33 | -1.13 ± 0.3
19 | UAUGAGCAAUAUUACGCUUG | -3.32 ± 0.4 | 0.0607 ± 0.25
20 | UAUGAGCAAUAUUACGGAAU | -3.65 ± 0.47 | -2.44 ± 0.38
21 | UAUGAGCAAUAUUACGGUGU | -3.54 ± 0.23 | -2.63 ± 0.2
22 | UAUGAGCAAUAUUACGUAAA | -3.46 ± 0.32 | -1.59 ± 0.19
23 | UAUGAGCAAUAUUACGUAAC | -2.86 ± 0.36 | –
24 | UAUGAGCAAUAUUACGUAGA | -2.7 ± 0.18 | -2.46 ± 0.2
25 | UAUGAGCAAUAUUACGUAUU | – | -3.61 ± 0.35

Row | Sequence | self-splicing fitness (ln) (30 °C) | self-splicing fitness (ln) (37 °C)
26 | UAUGAGCAAUAUUACGUGAA | -2.98 ± 0.33 | -1.35 ± 0.17
27 | UAUGAGCAAUAUUACGUUAG | -2.63 ± 0.17 | -2.23 ± 0.22
28 | UAUGAGCAAUAUUACGUUAU | -3.87 ± 0.33 | -2.46 ± 0.19
29 | UAUUAGCAAUAUUACGAAGA | -1.81 ± 0.17 | -1.75 ± 0.26
30 | UAUUAGCAAUAUUACGAAGU | -2.67 ± 0.42 | -2.12 ± 0.4
31 | UAUUAGCAAUAUUACGACCC | -3.2 ± 0.38 | -0.71 ± 0.33
32 | UAUUAGCAAUAUUACGACGA | -0.31 ± 0.18 | -0.557 ± 0.23
33 | UAUUAGCAAUAUUACGAUGG | -1.24 ± 0.094 | -0.174 ± 0.11
34 | UAUUAGCAAUAUUACGCAAU | -2.79 ± 0.28 | -1.77 ± 0.27
35 | UAUUAGCAAUAUUACGCAGG | -1.43 ± 0.14 | -0.962 ± 0.14
36 | UAUUAGCAAUAUUACGCCGG | -0.99 ± 0.22 | -0.907 ± 0.26
37 | UAUUAGCAAUAUUACGCGAA | -2.22 ± 0.29 | -0.951 ± 0.17
38 | UAUUAGCAAUAUUACGCGUC | -4.05 ± 0.35 | -2.57 ± 0.26
39 | UAUUAGCAAUAUUACGCUAC | -2.5 ± 0.41 | -1.15 ± 0.47
40 | UAUUAGCAAUAUUACGCUCU | -1.02 ± 0.17 | -0.332 ± 0.32
41 | UAUUAGCAAUAUUACGCUUA | -1.05 ± 0.2 | -0.89 ± 0.25
42 | UAUUAGCAAUAUUACGGCAG | -0.281 ± 0.085 | -0.424 ± 0.12
43 | UAUUAGCAAUAUUACGGCCA | -0.0346 ± 0.21 | -0.902 ± 0.16
44 | UAUUAGCAAUAUUACGGCGG | -0.834 ± 0.11 | -0.195 ± 0.12
45 | UAUUAGCAAUAUUACGGGCA | -0.498 ± 0.19 | -0.39 ± 0.17
46 | UAUUAGCAAUAUUACGGUCA | -0.76 ± 0.1 | -0.0892 ± 0.095
47 | UAUUAGCAAUAUUACGUAGG | -1.57 ± 0.14 | -1.33 ± 0.23
48 | UAUUAGCAAUAUUACGUCAU | -3.69 ± 0.31 | -2.81 ± 0.27
49 | UAUUAGCAAUAUUACGUCGA | -1.27 ± 0.16 | -0.984 ± 0.17
50 | UAUUAGCAAUAUUACGUGUG | -0.846 ± 0.067 | -0.549 ± 0.084

Row | Sequence | self-splicing fitness (ln) (30 °C) | self-splicing fitness (ln) (37 °C)
51 | UAUUAGCAAUAUUACGUGUU | -3.04 ± 0.29 | -2.86 ± 0.32
52 | UAUUAGCAAUAUUACGUUUU | – | -0.0777 ± 0.32
53 | UCAAAGCAAUAUUACGAAUC | – | -2.76 ± 0.38
54 | UCAAAGCAAUAUUACGACCU | -1.84 ± 0.19 | -0.48 ± 0.19
55 | UCAAAGCAAUAUUACGCAGC | -3.94 ± 0.29 | -2.72 ± 0.17
56 | UCAAAGCAAUAUUACGCCAU | -3.37 ± 0.24 | -2.27 ± 0.19
57 | UCAAAGCAAUAUUACGCUAU | -3.44 ± 0.22 | -1.41 ± 0.18
58 | UCAAAGCAAUAUUACGGACA | -0.451 ± 0.13 | 0.0835 ± 0.14
59 | UCAAAGCAAUAUUACGGCAA | -1.37 ± 0.15 | -0.568 ± 0.12
60 | UCAAAGCAAUAUUACGGCUA | -0.599 ± 0.1 | -1.31 ± 0.13
61 | UCAAAGCAAUAUUACGGCUC | – | -0.154 ± 0.2
62 | UCAAAGCAAUAUUACGGGAU | -2.04 ± 0.16 | -2.46 ± 0.25
63 | UCAAAGCAAUAUUACGGGGG | -2.55 ± 0.14 | -1.49 ± 0.14
64 | UCAAAGCAAUAUUACGGUCA | -0.88 ± 0.1 | -0.6 ± 0.1
65 | UCAAAGCAAUAUUACGUAUA | -3.27 ± 0.18 | -2.17 ± 0.17
66 | UCAAAGCAAUAUUACGUCAA | -2.84 ± 0.23 | -2.71 ± 0.29
67 | UCAAAGCAAUAUUACGUGCU | -4.45 ± 0.3 | -2.93 ± 0.21
68 | UCAAAGCAAUAUUACGUGUG | -1.51 ± 0.058 | -0.749 ± 0.066
69 | UCACAGCAAUAUUACGAACC | -1.05 ± 0.33 | -1.68 ± 0.34
70 | UCACAGCAAUAUUACGACCU | -2.97 ± 0.24 | -1.16 ± 0.19
71 | UCACAGCAAUAUUACGAGAC | -4.56 ± 0.46 | -2.61 ± 0.2
72 | UCACAGCAAUAUUACGAGGG | -2.01 ± 0.088 | -1.28 ± 0.12
73 | UCACAGCAAUAUUACGAGUU | -3.54 ± 0.17 | -2.08 ± 0.14
74 | UCACAGCAAUAUUACGAUAG | -2.75 ± 0.14 | -1.22 ± 0.12
75 | UCACAGCAAUAUUACGAUUA | -1.43 ± 0.1 | -0.545 ± 0.11

Row | Sequence | self-splicing fitness (ln) (30 °C) | self-splicing fitness (ln) (37 °C)
76 | UCACAGCAAUAUUACGAUUU | -4.01 ± 0.21 | -0.814 ± 0.11
77 | UCACAGCAAUAUUACGCCAA | -3.45 ± 0.44 | -2.74 ± 0.38
78 | UCACAGCAAUAUUACGCCUA | -1.95 ± 0.3 | -0.577 ± 0.18
79 | UCACAGCAAUAUUACGCGGG | -3.28 ± 0.12 | -2.56 ± 0.16
80 | UCACAGCAAUAUUACGCUGG | -3.9 ± 0.26 | -2.94 ± 0.22
81 | UCACAGCAAUAUUACGGAAU | -4.32 ± 0.25 | -2.97 ± 0.22
82 | UCACAGCAAUAUUACGGCCG | -1.24 ± 0.1 | -0.536 ± 0.15
83 | UCACAGCAAUAUUACGGCGA | 0.0998 ± 0.092 | 0.202 ± 0.094
84 | UCACAGCAAUAUUACGGCGU | -3.04 ± 0.19 | -2.93 ± 0.2
85 | UCACAGCAAUAUUACGGCUU | -3.43 ± 0.22 | -1.85 ± 0.17
86 | UCACAGCAAUAUUACGGUAA | -1 ± 0.084 | -0.187 ± 0.088
87 | UCACAGCAAUAUUACGUACU | -2.82 ± 0.17 | -2.09 ± 0.22
88 | UCACAGCAAUAUUACGUAGA | -1.09 ± 0.063 | -0.0941 ± 0.075
89 | UCACAGCAAUAUUACGUCCG | -1.21 ± 0.086 | -0.358 ± 0.098
90 | UCACAGCAAUAUUACGUUCC | -3.38 ± 0.21 | -1.47 ± 0.22
91 | UCACAGCAAUAUUACGUUGG | -2.84 ± 0.11 | -2.81 ± 0.18
92 | UCAGAGCAAUAUUACGAACU | -2.02 ± 0.33 | –
93 | UCAGAGCAAUAUUACGAGUG | -2.93 ± 0.29 | -0.458 ± 0.17
94 | UCAGAGCAAUAUUACGAUGG | -2.97 ± 0.21 | -1.33 ± 0.2
95 | UCAGAGCAAUAUUACGCGAU | -3.02 ± 0.26 | -2.08 ± 0.4
96 | UCAGAGCAAUAUUACGCGUA | -2.57 ± 0.32 | -0.569 ± 0.16
97 | UCAGAGCAAUAUUACGGAAU | -2.94 ± 0.17 | -2.22 ± 0.15
